From publication PMC8629194 (bioRxiv, 2021)

Biological target: wt ACE2_(615)-Fc (M27) (human, UniProt Q9BYF1 18-615)
Assay: SPR

Chain of wt ACE2_(615)-Fc (M27) (Q9BYF1 18-615): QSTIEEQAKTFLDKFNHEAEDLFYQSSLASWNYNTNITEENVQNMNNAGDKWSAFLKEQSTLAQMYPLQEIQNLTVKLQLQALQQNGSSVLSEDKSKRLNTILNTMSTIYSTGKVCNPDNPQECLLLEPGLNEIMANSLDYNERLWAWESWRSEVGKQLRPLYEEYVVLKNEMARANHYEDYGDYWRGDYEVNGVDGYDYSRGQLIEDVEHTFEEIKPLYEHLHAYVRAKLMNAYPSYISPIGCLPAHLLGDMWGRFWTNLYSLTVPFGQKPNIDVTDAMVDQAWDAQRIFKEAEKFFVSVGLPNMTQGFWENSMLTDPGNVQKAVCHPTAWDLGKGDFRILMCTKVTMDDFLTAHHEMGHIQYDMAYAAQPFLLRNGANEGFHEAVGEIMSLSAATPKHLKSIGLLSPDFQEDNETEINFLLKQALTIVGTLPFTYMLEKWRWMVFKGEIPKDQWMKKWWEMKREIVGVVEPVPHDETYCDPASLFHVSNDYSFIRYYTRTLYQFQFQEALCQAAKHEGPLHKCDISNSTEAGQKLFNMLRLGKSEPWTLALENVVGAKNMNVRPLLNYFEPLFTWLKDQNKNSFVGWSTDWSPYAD

B1: SARS-CoV RBD (residue 306–577) (domain or fragment)
chain: not shown
In the case of B1, the “fold, affinity of RBDwt for M27 over that of SARS-CoV-1 RBD” value is reported as about 5 fold.
